The target in the assay is Cov-S-RBD-His (SARS-CoV-2, UniProt P0DTC2 319-537).

B1: S4B3-mIgG2a (antibody, V domains shown)
VH: QVQLQQSGAELVKPGASVKMSCKASGYIFNSYSIHWVKKTPGQGLEWIGAIYPGNGDTSNSQRFKGKATLTADKSSSTVYMQLSRLTSEDSAVYYCARDGYDDSYGLDYWGQGTSVTVSS
VL: DIVMTQSQKFMSTSVGDRVSVTCKASQNVGTNVAWYQQKPGQSPKALIYSASYRYSGVPDRFTGSGSGTDFTLTISNVQSEDLAEYFCQQYNSYPLTFGGGTKLEIKR
On to B1, for which the Kd is 22.8 nM.

By Kd is commonly meant the concentration at which binding is half-saturated. Lower therefore signals higher affinity.

Values taken from patent CN116836268A (BEIJING WISDOMAB BIOTECHNOLOGY CO LTD, dated 2023).
